Assays:
Aβ1-20 peptide = test: solution-phase equilibrium titration, free antibody read by ELISA on ADDL-coated plate, GRAFIT fit
Aβ1-40 monomer = test: as above
[1] = target: amyloid β-derived diffusible ligands (ADDLs), oligomers of Aβ1-42; test: as above
[2] = target: fibrillar Aβ (Aβ1-42 fibrils); test: as above
Aβ1-42 monomer = test: ELISA, IgG2 antibodies
biotinylated ADDLs [3] = test: ELISA on coated antigen, chemiluminescence; antibody at 0 timepoint
biotinylated ADDLs [4] = test: ELISA on coated antigen, chemiluminescence; antibody stored 1 month at 4°
biotinylated ADDLs [5] = test: ELISA on coated antigen, chemiluminescence; antibody stored 1 month at 25°
biotinylated ADDLs [6] = test: ELISA on coated antigen, chemiluminescence; antibody stored 1 month at 40°

Chain of Aβ1-20 peptide (peptide, as listed by the source): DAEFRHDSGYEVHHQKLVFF

Substance	Kd (Aβ1-20 peptide) [nM]	Kd (Aβ1-40 monomer) [nM]	Kd [1] [nM]	Kd [2] [nM]	EC50 (Aβ1-42 monomer) [nM]	EC50 (biotinylated ADDLs [3]) [nM]	EC50 (biotinylated ADDLs [4]) [nM]	EC50 (biotinylated ADDLs [5]) [nM]	EC50 (biotinylated ADDLs [6]) [nM]
WO-2 (antibody)	19.3	6.15	0.57	1.15					
anti-ADDL antibody 19.3					18	1.1	1.7	2.1	5.9

Source: patent US20130130288A1
